The results in this text go back to patent US20040018558A1 (published 2004).

Where no end group is shown, it is not given here.

B1: L6 ICENLKDCGLF (peptide, not shown: small tags and cut ends)
chain: ICENLKDCGLF
modifications: cysteine pairing not given here; also: fused to lysate carrier and linker, not given here
B2: Clone No. 10 (Table IX) ICENLKECGLF (peptide, not shown: small tags and cut ends)
chain: ICENLKECGLF
modifications: cysteine pairing not given here; also: fused to LacI carrier via linker, letters not given here
B3: Clone No. 27 (Table IX) MCESLKECGLF (peptide, not shown: small tags and cut ends)
chain: MCESLKECGLF
modifications: cysteine pairing not given here; also: fused to LacI carrier via linker, letters not given here

T1 sequence (P02699 whole entry): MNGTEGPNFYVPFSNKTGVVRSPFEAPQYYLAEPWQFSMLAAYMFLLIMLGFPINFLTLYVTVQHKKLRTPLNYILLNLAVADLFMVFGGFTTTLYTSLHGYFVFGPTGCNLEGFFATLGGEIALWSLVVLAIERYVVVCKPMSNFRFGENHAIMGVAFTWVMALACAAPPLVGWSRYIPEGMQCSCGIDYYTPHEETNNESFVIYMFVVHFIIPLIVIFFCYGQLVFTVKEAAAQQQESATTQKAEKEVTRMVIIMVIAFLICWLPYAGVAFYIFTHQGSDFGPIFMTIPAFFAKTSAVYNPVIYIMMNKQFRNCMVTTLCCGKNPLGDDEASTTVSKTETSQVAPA

The first assay concerns the target T1, rhodopsin (activation state not stated) (bovine, UniProt P02699 1-348).
T1 construct: whole, on cells; same protein as m1; also called EDTA-washed rhodopsin
Nature of the assay: ELISA of lysates, OD450 with receptor minus without receptor. The method, then:
The methods of Example 7 repeated using rhodopsin screening with a Gt library. To identify the rank order of binding, the lysates were analyzed using ELISA methods in which the secondary antibody was conjugated to HRP. Following addition of the substrate, the microplate was read using a spectrophotometer. The binding is the OD₄₅₀ for wells with receptor—OD₄₅₀ for wells in which no receptor (control wells with empty lipid vesicles).
With IVEILEDCGLF (peptide, not shown: small tags and cut ends, also: fused to fusion carrier of the lysate via linker, not given here) [L33 IVEILEDCGLF], the ELISA came to 1.01 OD450.
Consider IVKNLEDCGLF (peptide, not shown: small tags and cut ends, also: fused to lysate carrier and linker, not given here) [L8 IVKNLEDCGLF], for which the ELISA is 0.257 OD450.
Still for that read-out and setting: then IRDNLKDCGLF (peptide, not shown: small tags and cut ends, also: fused to fusion carrier of the lysate via linker, not given here, second of two rows labelled L10) [L10 IRDNLKDCGLF], with 0.162 OD450; and ILENLKDCGLF (peptide, not shown: small tags and cut ends, also: fused to fusion carrier of the lysate via linker, not given here) [L3 ILENLKDCGLF], with 0.839 OD450.
Turning to B1, the ELISA came to 0.342 OD450.
Turning to ILQNLKDCGLF (peptide, not shown: small tags and cut ends, also: fused to fusion carrier of the lysate via linker, not given here) [L17 ILQNLKDCGLF], the ELISA worked out at 0.6 OD450.
On the same count and under the same terms, then ISKNLRDCGLL (peptide, not shown: small tags and cut ends, also: fused to fusion carrier of the lysate via linker, not given here) [L13 ISKNLRDCGLL], with 0.187 OD450; and IRGSLKDCGLF (peptide, not shown: small tags and cut ends, also: fused to LacI carrier via linker, letters not given here, also called L20) [Clone No. 13 (Table IX) IRGSLKDCGLF], with 0.423 OD450; and IHDRLKDCGLF (peptide, not shown: small tags and cut ends, also: fused to fusion carrier of the lysate via linker, not given here, first of two rows labelled L10) [L10 IHDRLKDCGLF], with 0.506 OD450.
On the same count and under the same terms, under VRDILKDCGLF (peptide, not shown: small tags and cut ends, also: fused to fusion carrier of the lysate via linker, not given here) [L15 VRDILKDCGLF] stands 0.621 OD450; under MLDNLKDCGLF (peptide, not shown: small tags and cut ends, also: fused to lysate carrier and linker, not given here) [L7 MLDNLKDCGLF], 0.525 OD450; under ILESLNECGLF (peptide, not shown: small tags and cut ends, also: fused to fusion carrier of the lysate via linker, not given here) [L34 ILESLNECGLF], 0.603 OD450.
Same read-out and setting: then LLDILKDCGLF (peptide, not shown: small tags and cut ends, also: fused to lysate carrier and linker, not given here) [L38 LLDILKDCGLF], with 0.823 OD450; and MLDNLKACGLF (peptide, not shown: small tags and cut ends, also: fused to lysate carrier and linker, not given here) [L4 MLDNLKACGLF], with 0.908 OD450; and LRENLKDCGLL (peptide, not shown: small tags and cut ends, also: fused to fusion carrier of the lysate via linker, not given here) [L14 LRENLKDCGLL], with 0.833 OD450.

The next assay deals with T2, dark-adapted rhodopsin (bovine rod outer segment membranes) (bovine, UniProt P02699 1-348, retinylidene chromophore bound to Lys-296).
T2 construct: whole, on cells; also called dark-adapted bovine rhodopsin
T2 sequence (P02699 whole entry): as above
Nature of the assay: LacI display panning, dark-adapted ROS membranes.
Take IREKWKDLALF (peptide, not shown: small tags and cut ends, also: fused to LacI carrier via linker, letters not given here) [Clone No. 2 (Table X) IREKWKDLALF]: the binding result is given as “binds”.

For the next assay, the target named is T3, light-activated rhodopsin (bovine rod outer segment membranes) (bovine, UniProt P02699 1-348, retinylidene chromophore bound to Lys-296).
T3 construct: whole, on cells; native receptor in membrane fragments immobilised on wells, not intact cells; also called metarhodopsin II; MII
T3 sequence (P02699 whole entry, the tested form may be a part): as the sequence (P02699 whole entry) above
Briefly: LacI display panning, light-activated ROS membranes. The method, then:
For screening of the library by “panning,” rhodopsin receptors prepared according to Example 5 were immobilized directly on Immulon 4 (Dynatech) microtiter wells (0.1-1 μg of protein per well) in cold 35 mM HEPES, pH 7.5, containing 0.1 mM EDTA, 50 mM KCl and 1 mM dithiothreitol (HEK/DTT). After shaking for one hour at 4° C., unbound membrane fragments were washed away with HEK/DTT. The wells were blocked with 100 μl 2% BSA in HEKL (35 mM HEPES; 0.1 mM EDTA; 50 mM KCl; 0.2 M α-lactose; pH 7.5, with 1 mM DTT). For rounds 1 and 2, BSA was used for blocking; in later rounds 1% nonfat dry milk was used. For the first round of panning, about 24 wells of a 96-well plate were used. In subsequent rounds, 8 wells with receptor and 8 wells without receptor were prepared.
The Gt library was thawed (2 mL aliquot) and mixed with 6 mL lysis buffer on ice. Lysis buffer contains 4.25 mL HE (25 mM HEPES: 0.1 mM EDTA; pH 7.5); 1 mL 50% glycerol; 750 μL 10 mg/mL protease-free BSA in HE; 10 μL 0.5 M DTT; and 6.25 μL 0.2 M PMSF. Freshly prepared lysozyme solution (150 μL 10 mg/mL lysozyme in cold HE) was added and the tube was gently inverted several times and incubated on ice for no more than two minutes. The extent of lysis is evidenced by an increase in viscosity that can be observed by noting the slow migration of bubbles to the top of the tube after mixing. Lysis was terminated by mixing in 2 mL 20% lactose and 250 μL 2M KCl. The tube was centrifuged immediately at 13,000×g for 15 minutes at 4° C. and the supernatant transferred to a new tube. A small aliquot of 0.1% (the PRE sample) was saved in a separate, labeled tube. […] Immediately thereafter, the crude bacterial lysate from the peptide library (200 μL) was added to each well and allowed to shake gently for one hour at 4° C. For round 2, this same procedure was followed. In round 3, the amount of lysate used was reduced to 100 μL. In subsequent rounds, the lysate was diluted 1:10 in HEKL/BSA.
On to IQGVLKDCGLL (peptide, not shown: small tags and cut ends, also: fused to LacI carrier via linker, letters not given here) [Clone No. 9 (Table IX) IQGVLKDCGLL], for which the binding result is given as “binds”.
Regarding IFLNLKDCGLF (peptide, not shown: small tags and cut ends, also: fused to LacI carrier via linker, letters not given here) [Clone No. 14 (Table IX) IFLNLKDCGLF], the binding result is recorded as “binds”.
On the same count and under the same terms, under MLKNLKDCGMF (peptide, not shown: small tags and cut ends, also: fused to LacI carrier via linker, letters not given here) [Clone No. 24 (Table IX) MLKNLKDCGMF] stands “binds”; under IIDNLKDCGLF (peptide, not shown: small tags and cut ends, also: fused to LacI carrier via linker, letters not given here) [Clone No. 16 (Table IX) IIDNLKDCGLF], “binds”.
On the same count and under the same terms, under VLEDLKSCGLF (peptide, not shown: small tags and cut ends, also: fused to LacI carrier via linker, letters not given here) [Clone No. 23 (Table IX) VLEDLKSCGLF] stands “binds”.
Still for that read-out and setting: then B2, with “binds”.
On to ILTKLTDCGLF (peptide, not shown: small tags and cut ends, also: fused to LacI carrier via linker, letters not given here) [Clone No. 4 (Table IX) ILTKLTDCGLF], for which the binding result is “binds”.
Consider B3, for which the binding result is recorded as “binds”.
On the same count and under the same terms, then MRESLKDCGLF (peptide, not shown: small tags and cut ends, also: fused to LacI carrier via linker, letters not given here) [Clone No. 17 (Table IX) MRESLKDCGLF], with “binds”; and IRENLEDCGLF (peptide, not shown: small tags and cut ends, also: fused to LacI carrier via linker, letters not given here) [Clone No. 15/28 (Table IX) IRENLEDCGLF], with “binds”; and LRESLKQCGLF (peptide, not shown: small tags and cut ends, also: fused to LacI carrier via linker, letters not given here) [Clone No. 6 (Table IX) LRESLKQCGLF], with “binds”.
Same read-out and setting: then MLENLKDCGLF (peptide, not shown: small tags and cut ends, also: fused to LacI carrier via linker, letters not given here) [Clone No. 18 (Table IX) MLENLKDCGLF], with “binds”; and LLDNIKDCGLF (peptide, not shown: small tags and cut ends, also: fused to LacI carrier via linker, letters not given here) [Clone No. 3 (Table IX) LLDNIKDCGLF], with “binds”; and IRETLKDCGLL (peptide, not shown: small tags and cut ends, also: fused to LacI carrier via linker, letters not given here) [Clone No. 19 (Table IX) IRETLKDCGLL], with “binds”.
Same read-out and setting: then ILADVIDCGLF (peptide, not shown: small tags and cut ends, also: fused to LacI carrier via linker, letters not given here) [Clone No. 26 (Table IX) ILADVIDCGLF], with “binds”; and IHASLRDCGLF (peptide, not shown: small tags and cut ends, also: fused to LacI carrier via linker, letters not given here) [Clone No. 11 (Table IX) IHASLRDCGLF], with “binds”.
